What is called Kd is a measure of binding affinity in units of concentration. As a reminder, the EC50 (read off the curve) is the midpoint of the concentration-response curve. One may read the IC50 as the concentration that gives 50% inhibition.

Five molecules from patent US20220235144A1 (QILU PUGET SOUND BIOTHERAPEUTICS, published 2022) can be followed below.

The target in assay [1] is T1, cSIRPαV1D1 with histidine tag (cynomolgus monkey (Macaca fascicularis), UniProt Q5TFQ8 30-146 (human entry)).
T1 construct: also called cynomolgus monkey SIRPαV1D1; not shown: histidine tag
T1 chain: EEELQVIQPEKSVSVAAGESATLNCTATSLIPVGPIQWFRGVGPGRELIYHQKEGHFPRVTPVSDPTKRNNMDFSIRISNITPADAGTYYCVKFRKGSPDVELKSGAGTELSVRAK
The experiment in a line: SPR (Biacore 3000), IgG captured on anti-human IgG, His-tagged D1 analyte. From the text:
(§1) Goat anti-human IgG capture antibody (Jackson Laboratories; 109-005-098) was immobilized on the four flow cells in each sensor chip using standard amine coupling chemistry. About 8000 resonance units (RU) of this antibody was immobilized on each flow cell. Flow cells 2, 3, and 4 were used to analyze captured anti-SIRPα antibodies (about 250 to 300 RU were captured on each of flow cells 2, 3, and 4), while flow cell 1 was used as the reference flow cell. The analytes tested were hSIRPαV1D1, hSIRPαV2D1, cynomolgus monkey SIRPαV1D1 (cSIRPαV1D1), cSIRPαV2D1, hSIRPβ1D1, and hSIRPγD1, each of which also included a histidine tag. The sequences of cSIRPαV1D1 and cSIRPαV2D2 are provided in SEQ ID NOs: 143 and 142, respectively. To avoid confusion, the differences between the amino acid sequences of cSIRPαV1D1 and cSIRPαV2D1 are not the same as the differences between the amino acid sequences of hSIRPαV1D1 and hSIRPαV2D1. […] The amino acid sequence of hSIRPβ1D1 can be found in amino acids 30-148 of SEQ ID NO: 144, and the amino acid sequence of hSIRPγD1 can be found in amino acids 31-149 of SEQ ID NO: 141.
(§2) Generally, concentrations from about 0.1×KD to about 10×KD are appropriate for kinetic analysis. From one to six different concentrations were evaluated for each antibody:analyte interaction, depending on the comparisons to be made in an individual experiment. All analyte dilutions were prepared in HPS-EP buffer. Multiple blank (running buffer) injections were run and used to assess and subtract system artifacts. The association phase and dissociation phase for all analyte concentrations were monitored for 180 seconds and 300 seconds, respectively, at a flow rate of 50 μL/min. Between antibody samples, the surfaces of the flow cells were regenerated with 10 mM glycine, pH 1.5 using two injections, each lasting 12 seconds at a flow rate of 50 μL/min.
(§3) The data were analyzed using BIAevaluation software (Biacore, General Electric (GE)). The data was fit using the 1:1 Langmuir model.

The target of assay [2] is T2, hSIRPαV2D1 with histidine tag (human).
T2 construct: analyte of the Biacore experiments; also called first immunoglobulin-like domain of human SIRPα variant V2; not shown: histidine tag
Described as above.
Text: as §1, §2, §3

The target in assay [3] is T3, hSIRPβ1D1 with histidine tag (human, UniProt O00241 30-148).
T3 construct: analyte of the Biacore experiments; also called hSIRPβD1; not shown: histidine tag
Described as above.
Text: as §1, §2, §3

For assay [4], the target named is T4, hSIRPγD1 with histidine tag (human, UniProt Q9P1W8 31-149).
T4 construct: also called first immunoglobulin-like domain of human SIRP Gamma; not shown: histidine tag
The assay is described as above.
Text: as §1, §2, §3

For assay [5], the target named is T5, cSIRPαV2D1 with histidine tag (cynomolgus monkey (Macaca fascicularis), UniProt Q5TFQ8 30-146 (human entry)).
T5 construct: also called cynomolgus monkey SIRPαV2D1; not shown: histidine tag
T5 chain: T1 chain with E19D, A27V, T28S, V42A, H51N, Q52L
Described as above.
Text: as §1, §2, §3

Assay [6] deals with T6, hSIRPαV1D1 with histidine tag (human, UniProt P78324 31-147).
T6 construct: analyte of the Biacore experiments; also called first immunoglobulin-like domain of human SIRPα variant V1; not shown: histidine tag
Described as above.
Text: as §1, §2, §3

Assay [7] deals with T7, hSIRPαV1 expressed on the cell surface (human, UniProt P78324 31-504).
T7 construct: also called human SIRPα variant V1
The experiment in a line: FACS competition on EXPI293 cells stably expressing hSIRPαV1: biotinylated hCD47:Fc (2.5 µg/ml) mixed with serial dilutions of the antibody, bound hCD47:Fc detected with streptavidin-PE (MFI); blocked ligand: hCD47:Fc. As for the experimental part: (§4) The x axes show the antibody concentration in μg/ml. The y axes show mean fluorescence intensity (MFI) at about 572 nm (due to binding of biotinylated CD47:Fc, detected by a streptavidin-phycoerythrin conjugate).
(§5) Some of the anti-SIRPα antibodies described above were tested in vitro for their ability to inhibit binding of CD47 to hSIRPαV1 or hSIRPαV2 expressed on the surface of EXPI293™ cells stably transfected with DNA encoding these proteins. Briefly, stable transfectants expressing hSIRPαV1 or hSIRPαV2 were seeded into 96-well microtiter plates. […] After 30 minutes incubation, cells were washed, streptavidin-phycoerythrin (streptavidin-PE) was added, and cells were subjected to FACS to detect bound hCD47:Fc. Results were reported as a mean fluorescence intensity (MFI) using FlowJo software (FLOWJO, L.L.C., Ashland, Oreg., USA). FIGS. 4 and 5 show the MFI detected on the y axes of both panels and the antibody concentration on the x axes of both panels.

The target of assay [8] is T8, hSIRPαV2 expressed on the cell surface (human, UniProt P78324 31-504).
T8 construct: whole, on cells; also called human SIRPα variant V2
As to the kind of experiment: FACS competition on EXPI293 cells stably expressing hSIRPαV2: biotinylated hCD47:Fc (2.5 µg/ml) mixed with serial dilutions of the antibody, bound hCD47:Fc detected with streptavidin-PE (MFI); blocked ligand: hCD47:Fc. As for the experimental part: as §4, §5

The target in assay [9] is T8, hSIRPαV2 expressed on the cell surface. The experiment in a line: flow cytometry on primary human monocytes (FSC/SSC gate) in PBMCs expressing only SIRPαV2, antibody detected with APC-(Fab)2 goat anti-human IgG Fc (MFI at about 670 nm). On the procedure:
FIG. 6: Binding of anti-SIRPα antibodies to T cells and monocytes. Methods are described in Example 4. […] The x axes show the antibody concentration in μg/ml. The y axes show mean fluorescence intensity (MFI) at about 670 nm (due to binding of allophycocyanin (APC)-conjugated (Fab)₂ goat anti-human IgG Fc-specific secondary antibody).
Some of the anti-SIRPα antibodies were tested in vitro for binding to primary T cells and monocytes in peripheral blood mononuclear cells (PBMCs). Briefly, PBMCs that expressed only SIRPα V2 were seeded in 96-well microtiter plates. Serial dilutions of anti-SIRPα antibodies were incubated with the cells on ice for 30 minutes. […] The cells were then subjected to FACs. T cells were gated based on their anti-CD4 or anti-CD8 binding (detected by FITC fluorescence), since T cells commonly express either CD4 or CD8. Monocytes were gated based on their forward scatter/side scatter (FSC/SSC) profile, since a characteristic FSC/SSC profile can identify monocytes. See, e.g., Marimuthu et al., Characterization of human monocytes subsets by whole blood flow cytometry analysis, J. Vis. Exp. (140), e57941, doi:10.3791/57941 (2018). The binding of anti-SIRPα antibodies to each population was reported as a mean fluorescence intensity (MFI) of the APC channel (670 nm).

In assay [10] the target is T7, hSIRPαV1 expressed on the cell surface. As to the kind of experiment: FACS competition on EXPI293 cells stably expressing hSIRPαV1: biotinylated hCD47:Fc (2.5 µg/ml) mixed with serial dilutions of the antibody, bound hCD47:Fc detected with streptavidin-PE (MFI); blocked ligand: hCD47:Fc. As for the experimental part:
(§6) The x axes show the antibody concentration in μg/ml. The y axes show mean fluorescence intensity (MFI) at about 572 nm.
as §5
The source holds these as a separate data set.

Assay [11] has as its target T8, hSIRPαV2 expressed on the cell surface. As to the kind of experiment: FACS competition: inhibition of biotinylated hCD47:Fc (2.5 µg/ml) binding to EXPI293 cells expressing hSIRPαV2, FIG. 5A. As for the experimental part:
as §6, §5

Changes are numbered by the printed parent chain. Like-named read-outs stand apart in the source and are kept apart here.

B1: Ab1_G4 (antibody, human IgG4 S228P, kappa, V domains shown)
VH: EVQLVESGGGLVKPGGSLRLSCAASGFTFSSYVMSWVRQTPGKGLEWVATISSGGTYTYYPSSVKGRFTLSRDNAKNSLYLQMNSLRAEDTAVYYCASSLTGSSFDYWGQGTTVTVSS
VL: DIVLTQSPASLAVSLGERATISCRASESVDLYGTSFMHWYQQKPGQPPKLLIYRASNLESGVPDRFSGSGSRTDFTLTINPLQAEDVATYYCHQSSDELPWTFGGGTKVEIKR
notes: human IgG4 format, kappa light chain, made in EXPICHO cells
Consider B1, for which the equilibrium dissociation constant (Kd) is 36.4 nM in assay [1]; 3.12 nM in assay [2]; 1.39 nM in assay [3]; 244 nM in assay [4]; around 399 nM in assay [5]; 67.9 nM in assay [6]. Further, the “IC50 (read off the curve)” value is around 0.6 µg/mL in [7] and around 0.2 µg/mL in assay [8].

B2: Ab24_G4 (antibody, human IgG4 S228P, kappa)
heavy: not shown
light: DIVLTQSPASLAVSLGERATISCRASESVDLYGTSFMHWYQQKPGQPPKLLIYRASNLESGVPDRFSGSGSRTDFTLTINPLQAEDVATYYCHQSSDELPWTFGGGTKVEIKRTVAAPSVFIFPPSDEQLKSGTASVVCLLNNFYPREAKVQWKVDNALQSGNSQESVTEQDSKDSTYSLSSTLTLSKADYEKHKVYACEVTHQGLSSPVTKSFNRGEC
notes: human IgG4 format
As for B2, the 50% effective concentration (EC50 (read off the curve)) in assay [9] is around 0.03 µg/mL. Besides, the dissociation constant (Kd) in assay [1] amounted to 8.59 nM; in assay [2], 0.956 nM; in assay [3] it was 0.217 nM; in [4] it was 140 nM; in assay [6], 21.4 nM.

B3: Ab11_G4 (antibody, human IgG4 S228P, kappa, V domains shown)
VH: B1 VH with S62D, S99Q, S104E
VL: DIVITQSPASLAVSLGERATISCRASESVDSYGNSFMHWYQQKPGQPPKLLIYRASNLESGVPDRFSGSGSRTDFTLTINPLQAEDVATYYCHQSGDLPWTFGGGTKVEIKR
notes: human IgG4 format
In the case of B3, the “EC50 (read off the curve)” value in assay [9] is around 0.06 µg/mL. Also, the dissociation constant (Kd) in assay [1] is 127 nM; in assay [2], 3.09 nM; in [3], 11.1 nM; in assay [4], around 7310 nM; in assay [5], around 519 nM; in [6], 231 nM. Also, the “IC50 (read off the curve)” value in assay [8] was around 0.3 µg/mL.

B4: Ab24_G2 (antibody, human IgG2, kappa)
heavy: EVQLVESGGGLVKPGGSLRLSCAASGFTFSSYVMSWVRQTPGKGLEWVATISSGGTYTYYPDSVKGRFTLSRDNAKNSLYLQMNSLRAEDTAVYYCASQLTGSEFDYWGQGTTVTVSSASTKGPSVFPLAPCSRSTSESTAALGCLVKDYFPEPVTVSWNSGALTSGVHTFPAVLQSSGLYSLSSVVTVPSSNFGTQTYTCNVDHKPSNTKVDKTVERKCCVECPPCPAPPVAGPSVFLFPPKPKDTLMISRTPEVTCVVVDVSHEDPEVQFNWYVDGVEVHNAKTKPREEQFNSTFRVVSVLTVVHQDWLNGKEYKCKVSNKGLPAPIEKTISKTKGQPREPQVYTLPPSREEMTKNQVSLTCLVKGFYPSDIAVEWESNGQPENNYKTTPPMLDSDGSFFLYSKLTVDKSRWQQGNVFSCSVMHEALHNHYTQKSLSLSPGK
light: B2 light
notes: like Ab24_G4 but with an IgG2 HC; also called Ab24_IgG2
As to B4, in [10], the “IC50 (read off the curve)” value was around 0.4 µg/mL. The molecule further came in with an IC50 in assay [11] of 0.22 µg/mL.

B5: Ab24_4422 PA (antibody, human IgG4 S228P, kappa)
heavy: B4 heavy with N193S, F194L, Q197K, T215R, R218S, C220Y, C221G, V222P, E223P, P326A
light: B2 light
On to B5, for which, in assay [10], the “IC50 (read off the curve)” value is around 0.3 µg/mL. Besides, the half-maximal inhibitory concentration (IC50) in [11] came out at 0.17 µg/mL.
